Source: the supplement of paper PMC7877785
± gives the uncertainty stated by the source.

Assay: self-splicing fitness, log relative to wild type (ln ratio); higher = more splicing; Tetrahymena group I intron in knt gene, E. coli kanamycin selection, DiMSum; sequences stand for … in CUCUCU…GGAGGGAAAAGUUAUCAGGCAUGCACCUGGUAGCUAGUCUUUAAACCAAUAGAUUGCAUCGGUUUAAAAGGCAAGACCGUCAAAUUGCGGGAAAGGGGUCAACAGCCGUUCAGUACCAAGUCUCAGGGGAAACUUUGAGAUGGCCUUGCAAAGGGUAUGGUAAUAAGCUGACGGACAUGGUCCUAACCACGCAGCCAAGUCCUAAGUCAACAGAUCUUCUGUUGAUAUGGAUGCAGUUCACAGACUAAAUGUCGGUCGGGGAAGAUGUAUUCUUCUCAUAAGAUAUAGUCGGACCUCUCCUUAAUGGGAGCUAGCGGAUGAAGUGAUGCAACACUGGAGCCGCUGGGAACUAAUUUGUAUGCGAAAGUAUAUUGAUUAGUUUUGGAGUACUCGUGGUCG
How it was run: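 Fitness was computed with DiMSum as the error-weighted combination of replicate fold changes, kanamycin versus none, each normalised to wild type. The library randomised all eight intron nucleotides of the P1ex region, with the intron placed in the knt kanamycin-resistance gene on pET-22b(+) in E. coli BL21(DE3). Six replicate transformations were grown overnight at 37°C or 30°C on LB agar with or without 25 μg/mL kanamycin, plus 100 μg/mL carbenicillin, 50 μM IPTG and 0.2% rhamnose. Pooled colonies were amplicon-sequenced on an Illumina HiSeq 2500.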

Sequence | self-splicing fitness (ln) (30 °C) | self-splicing fitness (ln) (37 °C)
GGUAAGCAAUAUUACGCCAU | -2.39 ± 0.36 | -1.86 ± 0.29
GGUAAGCAAUAUUACGCGGU | -3.85 ± 0.31 | -0.403 ± 0.15
GGUAAGCAAUAUUACGGAAA | -3.13 ± 0.35 | -0.547 ± 0.16
GGUAAGCAAUAUUACGGGGG | -3.98 ± 0.46 | -3.13 ± 0.2
GGUAAGCAAUAUUACGGUAA | -1.6 ± 0.17 | -0.53 ± 0.14
GGUAAGCAAUAUUACGGUCC | -1.57 ± 0.34 | 
GGUAAGCAAUAUUACGUCUA | -0.569 ± 0.1 | -0.562 ± 0.1
GGUAAGCAAUAUUACGUGCC | -3.17 ± 0.39 | -3.07 ± 0.38
GGUAAGCAAUAUUACGUGCG | -1.12 ± 0.12 | -0.227 ± 0.12
GGUAAGCAAUAUUACGUGCU | -2.24 ± 0.18 | -1.36 ± 0.2
GGUAAGCAAUAUUACGUUAA | -2.57 ± 0.29 | -1.37 ± 0.2
GGUAAGCAAUAUUACGUUGC | -3.3 ± 0.32 | -2.95 ± 0.4
GGUAAGCAAUAUUACGUUUA | -2.68 ± 0.17 | -0.278 ± 0.11
GGUCAGCAAUAUUACGAAAU | -1.15 ± 0.097 | 0.351 ± 0.12
GGUCAGCAAUAUUACGAACU | -0.446 ± 0.25 | -1.74 ± 0.21
GGUCAGCAAUAUUACGACUU | -0.64 ± 0.081 | -1.09 ± 0.087
GGUCAGCAAUAUUACGAGCA | -0.762 ± 0.32 | 
GGUCAGCAAUAUUACGAGUA | -2.09 ± 0.18 | -1.32 ± 0.14
GGUCAGCAAUAUUACGCCAG | -3.3 ± 0.47 | -3.3 ± 0.4
GGUCAGCAAUAUUACGCGCU |  | -2.13 ± 0.15
GGUCAGCAAUAUUACGCUAA | -1.1 ± 0.095 | 0.512 ± 0.13
GGUCAGCAAUAUUACGGAAA | -1.22 ± 0.11 | -0.845 ± 0.11
GGUCAGCAAUAUUACGGGCA | -0.684 ± 0.1 | -0.119 ± 0.11
GGUCAGCAAUAUUACGGUCG | -0.085 ± 0.066 | 0.661 ± 0.09
GGUCAGCAAUAUUACGGUCU | -1.28 ± 0.12 | -0.217 ± 0.13

Sequence | self-splicing fitness (ln) (30 °C) | self-splicing fitness (ln) (37 °C)
GGUCAGCAAUAUUACGGUUG | -1.07 ± 0.1 | -0.43 ± 0.12
GGUCAGCAAUAUUACGUACG | 0.123 ± 0.08 | -0.609 ± 0.082
GGUCAGCAAUAUUACGUAUG | -1.66 ± 0.085 | 0.0829 ± 0.1
GGUCAGCAAUAUUACGUGAU | -3.88 ± 0.22 | -2.14 ± 0.11
GGUCAGCAAUAUUACGUGUA | -0.892 ± 0.071 | -0.855 ± 0.082
GGUCAGCAAUAUUACGUGUC | -0.998 ± 0.12 | -0.0483 ± 0.13
GGUCAGCAAUAUUACGUUCA | -0.169 ± 0.13 | -0.487 ± 0.13
GGUCAGCAAUAUUACGUUCG | -0.853 ± 0.093 | 0.373 ± 0.13
GGUGAGCAAUAUUACGAAAA | -2.57 ± 0.32 | -2.66 ± 0.38
GGUGAGCAAUAUUACGACCA | -1.21 ± 0.25 | -0.616 ± 0.31
GGUGAGCAAUAUUACGACCU | -2.12 ± 0.26 | -2.52 ± 0.49
GGUGAGCAAUAUUACGACUG | -0.488 ± 0.11 | 0.309 ± 0.13
GGUGAGCAAUAUUACGAGAU |  | -2.44 ± 0.24
GGUGAGCAAUAUUACGAGGA | -1.95 ± 0.39 | -2.02 ± 0.33
GGUGAGCAAUAUUACGAUUU | -1.35 ± 0.23 | -0.612 ± 0.25
GGUGAGCAAUAUUACGCCAG | -2.86 ± 0.47 | 
GGUGAGCAAUAUUACGCCGA | -2.06 ± 0.46 | -1.46 ± 0.48
GGUGAGCAAUAUUACGCGUA | -1.95 ± 0.3 | -0.54 ± 0.21
GGUGAGCAAUAUUACGGAAU | -2.53 ± 0.39 | 0.428 ± 0.28
GGUGAGCAAUAUUACGGCUU | -1.7 ± 0.16 | -0.614 ± 0.17
GGUGAGCAAUAUUACGGGUC | -1.98 ± 0.11 | -2.4 ± 0.15
GGUGAGCAAUAUUACGGUGU | -3.9 ± 0.36 | -2.05 ± 0.31
GGUGAGCAAUAUUACGUCGG | -2.16 ± 0.28 | -2.5 ± 0.3
GGUGAGCAAUAUUACGUGGG | -3.2 ± 0.23 | -2.09 ± 0.23
GGUGAGCAAUAUUACGUUCC | -1.39 ± 0.18 | -0.666 ± 0.24

Sequence | self-splicing fitness (ln) (30 °C) | self-splicing fitness (ln) (37 °C)
GGUGAGCAAUAUUACGUUCU | 0.501 ± 0.28 | -1.16 ± 0.27
GGUGAGCAAUAUUACGUUGA | -2.7 ± 0.43 | -1.05 ± 0.18
GGUUAGCAAUAUUACGACGC | 0.551 ± 0.17 | 0.289 ± 0.16
GGUUAGCAAUAUUACGACGU | 0.152 ± 0.071 | 0.738 ± 0.089
GGUUAGCAAUAUUACGACUC | -1.58 ± 0.17 | -0.677 ± 0.21
GGUUAGCAAUAUUACGAGGU |  | -2.43 ± 0.32
GGUUAGCAAUAUUACGCCCG | -3.15 ± 0.49 | -1.55 ± 0.48
GGUUAGCAAUAUUACGCCGA | -1.52 ± 0.25 | -0.734 ± 0.23
GGUUAGCAAUAUUACGCCUC | -0.314 ± 0.17 | -1.4 ± 0.2
GGUUAGCAAUAUUACGCGUU | -1.01 ± 0.17 | -0.358 ± 0.19
GGUUAGCAAUAUUACGCUUG | -2.32 ± 0.15 | -1.82 ± 0.2
GGUUAGCAAUAUUACGGCCA | -0.0519 ± 0.23 | 0.0427 ± 0.2
GGUUAGCAAUAUUACGGCUC | -2.05 ± 0.33 | -0.541 ± 0.46
GGUUAGCAAUAUUACGGCUG | -0.585 ± 0.16 | 0.214 ± 0.28
GGUUAGCAAUAUUACGGUAG | -2.79 ± 0.15 | -2.28 ± 0.2
GGUUAGCAAUAUUACGUAUC | -0.749 ± 0.12 | 0.0936 ± 0.15
GGUUAGCAAUAUUACGUCUU | -0.107 ± 0.093 | 0.227 ± 0.11
GGUUAGCAAUAUUACGUUAC | -2.81 ± 0.19 | -1.47 ± 0.23
GGUUAGCAAUAUUACGUUUG | -4.51 ± 0.34 | -1.42 ± 0.17
GUAAAGCAAUAUUACGAAGU | -1.47 ± 0.077 | -0.327 ± 0.098
GUAAAGCAAUAUUACGACAC | 0.603 ± 0.098 | 0.696 ± 0.12
GUAAAGCAAUAUUACGAGGC | -2.91 ± 0.18 | -2.44 ± 0.24
GUAAAGCAAUAUUACGAGUG | -1.69 ± 0.059 | -0.403 ± 0.08
GUAAAGCAAUAUUACGCACU | 0.0854 ± 0.099 | -0.289 ± 0.12
GUAAAGCAAUAUUACGCGAU | -3.23 ± 0.21 | -1.42 ± 0.19

Sequence | self-splicing fitness (ln) (30 °C) | self-splicing fitness (ln) (37 °C)
GUAAAGCAAUAUUACGGACU | -0.753 ± 0.061 | -0.471 ± 0.082
GUAAAGCAAUAUUACGGCAA | -0.0595 ± 0.1 | -0.0616 ± 0.16
GUAAAGCAAUAUUACGGCAC | 0.217 ± 0.12 | 0.134 ± 0.15
GUAAAGCAAUAUUACGGCUG | 0.0741 ± 0.066 | 0.175 ± 0.088
GUAAAGCAAUAUUACGGCUU | -0.183 ± 0.11 | 0.219 ± 0.14
GUAAAGCAAUAUUACGGGCU | -1.69 ± 0.069 | -1.24 ± 0.11
GUAAAGCAAUAUUACGGUAU | -0.495 ± 0.059 | 0.118 ± 0.084
GUAAAGCAAUAUUACGUACG | -0.843 ± 0.069 | -0.015 ± 0.1
GUAAAGCAAUAUUACGUAUA | -1.53 ± 0.11 | -0.524 ± 0.14
GUAAAGCAAUAUUACGUCCU | 0.164 ± 0.11 | 0.663 ± 0.16
GUAAAGCAAUAUUACGUCGC | -1.35 ± 0.11 | -0.63 ± 0.13
GUAAAGCAAUAUUACGUCGU | -0.978 ± 0.091 | -0.114 ± 0.14
GUAAAGCAAUAUUACGUCUC | 0.704 ± 0.098 | 0.129 ± 0.11
GUAAAGCAAUAUUACGUUAC | -1.15 ± 0.14 | -1.91 ± 0.21
GUAAAGCAAUAUUACGUUUC | -2.07 ± 0.16 | -1.03 ± 0.22
GUACAGCAAUAUUACGACAG | -3.31 ± 0.24 | -1.94 ± 0.21
GUACAGCAAUAUUACGAUGG | -3.3 ± 0.17 | -2.48 ± 0.17
GUACAGCAAUAUUACGAUUC | -0.318 ± 0.075 | -0.0725 ± 0.11
GUACAGCAAUAUUACGCAAU | -2.58 ± 0.21 | -1.87 ± 0.27
GUACAGCAAUAUUACGCCAU | -3.46 ± 0.23 | -2.32 ± 0.15
GUACAGCAAUAUUACGCGAG | -1.73 ± 0.094 | -1.85 ± 0.12
GUACAGCAAUAUUACGCUAC |  | -2.64 ± 0.48
